What all share (test): cell-based or functional assay
Assay [1] has as its target BCMA on multiple myeloma target cells (KILR MM-1R; RPMI8226_Luc) (UniProt Q02223).
The target of assay [2] is LCAR-B38M CAR (on LCAR-B38M CAR-T drug product cells).
In assay [3] the target is KLK2 CAR (on KLK2 CAR-T cells).

Consider four substances from US20220057381A1.

“LCAR-B38M CAR (on LCAR-B38M CAR-T drug product cells) (receptor)”: in assay [1], the % Total Killing, sample PQ-0330 Donor B MOI = 1.5 on RPMI8226 luc target cells stood at 77% and the % Total Killing, sample SH19-28 on RPMI8226 Luc target cells is 67%.
In assay [2], “Soluble Human BCMA Protein (sBCMA) (from UniProt Q02223 1-54) (receptor)” yielded a % CAR-T Killing of KILR MM-1R cells, baseline = CAR-T cells blocked with 50 ug/mL sBCMA lot C108P1-86BF2-NX of 42%; a % CAR-T Killing of KILR MM-1R cells, baseline = CAR-T cells blocked with 100 ug/mL sBCMA lot C108P1-86BF2-NX of 59%; a % CAR-T Killing of KILR MM-1R cells, baseline = CAR-T cells blocked with 150 ug/mL sBCMA lot C108P1-86BF2-NX of 68%; a % CAR-T Killing of KILR MM-1R cells, baseline = CAR-T cells blocked with 200 ug/mL sBCMA lot C108P1-86BF2-NX of 74%. Moreover, in assay [2], the % CAR-T Killing of KILR MM-1R cells, baseline = CAR-T cells blocked with 250 ug/mL sBCMA lot C108P1-86BF2-NX is 79%; the % CAR-T Killing of KILR MM-1R cells, baseline = CAR-T cells blocked with 300 ug/mL sBCMA lot C108P1-86BF2-NX was found to be 79%; the % CAR-T Killing of KILR MM-1R cells, baseline = CAR-T cells blocked with 400 ug/mL sBCMA lot C108P1-86BF2-NX came to 62%; the % CAR-T Killing, Blocking method, sample PQ-0330 Donor B MOI = 1.5 on K562 Luc (non-B cell) target cells was -46%. Further, in assay [2], the % CAR-T Killing, Blocking method, sample PQ-0330 Donor B MOI = 1.5 on RPMI8226 luc target cells came out at 28%; the % CAR-T Killing, Blocking method, sample SH19-28 on K562 Luc (non-B cell) target cells was -41%; the % CAR-T Killing, Blocking method, sample SH19-28 on RPMI8226 Luc target cells was 29%; the % Control T Cell Killing (blocked baseline), Blocking method, sample PQ-0330 Donor B MOI = 1.5 on RPMI8226 luc target cells is 67%. Also, in assay [2], the % Control T Cell Killing (blocked baseline), Blocking method, sample SH19-28 on K562 Luc (non-B cell) target cells is 39% and the % Control T Cell Killing (blocked baseline), Blocking method, sample SH19-28 on RPMI8226 Luc target cells came to 53%.
“soluble human KLK2 protein (sKLK2) with C-terminal His6 tag (from UniProt P20151 25-261)” came in with a % CAR-T Killing of KILR LNcaP-KLK2 cells, baseline = SH20-KLK2-004-CAR-T blocked w/ 125 ug/mL KLK2 soluble protein (500 mg/mL) in assay [3] of 107%.
Turning to “soluble human KLK2 protein (sKLK2) with C-terminal His6 tag (from UniProt P20151 25-261) (enzyme)”, in assay [3], the % CAR-T Killing of KILR LNcaP-KLK2 cells, baseline = SH20-KLK2-004-CAR-T blocked w/ 2.5 ug/mL KLK2 soluble protein (500 mg/mL) was found to be 49%; the % CAR-T Killing of KILR LNcaP-KLK2 cells, baseline = SH20-KLK2-004-CAR-T blocked w/ 12.5 ug/mL KLK2 soluble protein (500 mg/mL) turned out to be 68%; the % CAR-T Killing of KILR LNcaP-KLK2 cells, baseline = SH20-KLK2-004-CAR-T blocked w/ 25 ug/mL KLK2 soluble protein (500 mg/mL) was determined as 79%; the % CAR-T Killing of KILR LNcaP-KLK2 cells, baseline = SH20-KLK2-004-CAR-T blocked w/ 50 ug/mL KLK2 soluble protein (500 mg/mL) came out at 96%. In assay [3], this substance gave a % CAR-T Killing of KILR LNcaP-KLK2 cells, baseline = SH20-KLK2-004-CAR-T blocked w/ 75 ug/mL KLK2 soluble protein (500 mg/mL) of 106% and a % CAR-T Killing of KILR LNcaP-KLK2 cells, baseline = SH20-KLK2-004-CAR-T blocked w/ 100 ug/mL KLK2 soluble protein (500 mg/mL) of 111%.
